How the values were obtained:
[1] = molecular target: DDB1 (UV-DDB subunit);DDB2 (UV-DDB subunit) (human;human) (UniProt Q16531+Q92466); test: fluorescence polarisation; conditions: N at position 8 = THF abasic site
[2] = molecular target: DDB1 (human wild-type DDB1) (human, UniProt Q16531 1-1140); test: cryo-EM structure
Chain of DDB1 (human wild-type DDB1) (Q16531 whole entry): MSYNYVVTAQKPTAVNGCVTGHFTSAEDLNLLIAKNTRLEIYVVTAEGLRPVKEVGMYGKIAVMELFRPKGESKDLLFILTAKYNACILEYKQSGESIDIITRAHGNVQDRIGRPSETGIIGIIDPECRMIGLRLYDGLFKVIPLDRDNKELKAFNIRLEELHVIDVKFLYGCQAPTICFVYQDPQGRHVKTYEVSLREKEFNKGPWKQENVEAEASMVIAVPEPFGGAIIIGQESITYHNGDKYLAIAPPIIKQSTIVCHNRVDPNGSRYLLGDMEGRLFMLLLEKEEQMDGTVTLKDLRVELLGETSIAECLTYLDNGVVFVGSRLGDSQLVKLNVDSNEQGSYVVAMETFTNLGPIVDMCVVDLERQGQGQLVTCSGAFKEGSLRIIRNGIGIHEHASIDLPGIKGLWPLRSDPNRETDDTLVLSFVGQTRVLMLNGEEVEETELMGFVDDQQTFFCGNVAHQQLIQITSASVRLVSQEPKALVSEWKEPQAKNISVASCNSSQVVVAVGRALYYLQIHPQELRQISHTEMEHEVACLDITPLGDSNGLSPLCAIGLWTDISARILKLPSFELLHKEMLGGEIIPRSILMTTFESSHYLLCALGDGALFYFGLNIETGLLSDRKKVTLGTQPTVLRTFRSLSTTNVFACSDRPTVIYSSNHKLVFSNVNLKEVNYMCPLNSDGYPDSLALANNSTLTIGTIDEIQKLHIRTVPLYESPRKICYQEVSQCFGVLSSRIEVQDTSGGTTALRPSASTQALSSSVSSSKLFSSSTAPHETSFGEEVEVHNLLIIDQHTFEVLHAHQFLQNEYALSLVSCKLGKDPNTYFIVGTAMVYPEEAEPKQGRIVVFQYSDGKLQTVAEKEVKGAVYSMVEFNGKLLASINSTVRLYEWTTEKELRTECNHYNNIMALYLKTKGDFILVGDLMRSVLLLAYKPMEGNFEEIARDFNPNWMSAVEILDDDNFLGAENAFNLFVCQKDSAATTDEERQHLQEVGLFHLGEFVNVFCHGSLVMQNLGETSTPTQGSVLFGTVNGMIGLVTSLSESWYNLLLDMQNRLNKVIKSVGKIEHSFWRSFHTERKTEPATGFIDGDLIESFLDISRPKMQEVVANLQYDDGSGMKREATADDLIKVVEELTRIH

Chain of DDB1 (UV-DDB subunit);DDB2 (UV-DDB subunit) (human;human) (Q16531 whole entry, chain 1 of 2, one chain of several): as the sequence (Q16531 whole entry) above

Row | binding result [2] | Molecule | Kd [1] [nM]
1 | – | AATGAATNAAGCAGG / CCTGCTTTATTCATT [Cy5-15-bp-DNA-THF] | 0.15
2 | binds | DDB2 (human wild-type DDB2) (natural protein) MAPKKRPETQKTSEIVLRPRNKRSRSPLELEPEAKKLCAKGSGPSRRCDSDCLWVGLAGPQILPPCRSIVRTLHQHKLGRASWPSVQQGLQQSFLHTLDSYRILQKAAPFDRRATSLAWHPTHPSTVAVGSKGGDIMLWNFGIKDKPTFIKGIGAGGSITGLKFNPLNTNQFYASSMEGTTRLQDFKGNILRVFASSDTINIWFCSLDVSASSRMVVTGDNVGNVILLNMDGKELWNLRMHKKKVTHVALNPCCDWFLATASVDQTVKIWDLRQVRGKASFLYSLPHRHPVNAACFSPDGARLLTTDQKSEIRVYSASQWDCPLGLIPHPHRHFQHLTPIKAAWHPRYNLIVVGRYPDPNFKSCTPYELRTIDVFDGNSGKMMCQLYDPESSGISSLNEFNPMGDTLASAMGYHILIWSQEEARTRK | –
